Consider 1 molecule from patent EP3244212A1.

The target of assay [1] is serum sIgE of the patients of the ELISA inhibition study (Example 3) (human). Put plainly: ELISA inhibition: serum pre-incubated with soluble Ara h 2 (0.1, 1, 10 ug/ml); immobilised competitor Ara h 7.0201.
For assay [2] the target is unchanged. Put plainly: ELISA inhibition: serum pre-incubated with soluble Ara h 2 (0.1, 1, 10 ug/ml); immobilised competitor Ara h 6. A general note: In an ELISA, binding on a coated surface is turned into a signal by an enzyme label.

B1: Ara h 2 isotype 2.0201, recombinant His6 fusion protein (protein)
chain: MSHHHHHHIEGRTMRQQWELQGDRRCQSQLERANLRPCEQHLMQKIQRDEDSYGRDPYSPSQDPYSPSQDPDRRDPYSPSPYDRRGAGSSQHQERCCNELNEFENNQRCMCEALQQIMENQSDRLQGRQQEQQFKRELRNLPQQCGLRAPQRCDLEVESGGRDRY
As for B1, the % inhibition (median over sera) in assay [1] worked out at 16%; in assay [2], 43%.
